Reference: patent US20030157533A1, “Nucleic acid labeling by Thermoanaerobacter thermohydrosulfuricus DNA polymerase I variants” (priority 2001, published 2003)

Key:
Type in all cases: biochemical
[1] = system: Globin mRNA template annealed to P-33 labeled primer; assay: Single nucleotide incorporation of Cy3.5-dCTP or dCTP on RNA template (reverse transcriptase reaction, FIG. 7); settings: lower concentrations (0.2 uM or lower) of dye-CTP
Method: The experiment shown in FIG. 7 investigates the relative efficiencies of incorporation of dye-CTP (Cy3.5-dCTP) and dCTP. Three enzyme preparations ΔTts, ΔTts F412Y, ΔTtsF412YD426R were analyzed in this experiment.
(§1) Optimized 1×buffer compositions for Reverse Transcriptase (RNA dependent DNA Polymerase) and DNA Polymerase (DNA dependent DNA polymerase) reactions for all variants of Tts Pol I are as follows. Tris, pH 8.0 (50 mM), KCl (40 mM), MgCl2 (3 mM), DTT (1 mM), DNA or RNA template (as needed), primer (5 to 50 femto mols), enzyme 0.5 to 1 units, dNTP or dNTP analog (varying concentrations as needed). In standard synthesis reactions, when full-length synthesis is monitored, 50 uM of all 4 dNTPs are included. Typical reaction volume is 10 ul. Reaction temperature was kept between 37-60 C. depending on the experimental needs. Reaction time was limited to 10 minutes for single nucleotide incorporation studies. Time was varied as needed for the purpose of the experiments, sometimes up to 1 hour if longer extensions are monitored.
The experiment shown in FIG. 7 investigates the relative efficiencies of incorporation of dye-CTP (Cy3.5-dCTP) and dCTP. Three enzyme preparations ΔTts, ΔTtsFY, ΔTtsF412YD426R were analyzed in this experiment.
In FIG. 7, Globin mRNA served as the template. A 5′ P-33 labeled primer (DNA 25-mer) was annealed to the template. Reactions were performed with varying concentrations of either Cy3.5-dCTP or dCTP alone. Inclusion of only one dNTP allowed incorporation of the next correct nucleotide alone. The sequence of the template-primer that allowed for the examination of single nucleotide “C” incorporation is shown below.
Lanes 1,2,3 and 4 contain 20, 2, 0.2, and 0.02 uM of dNTP or dye-dNTP. Lane with no label has no enzyme, to show the integrity of the starting P-33 labeled primer. Quantification of the single nucleotide extension product is one way to tell if DR change to in the enzyme led to any consequence. “P” indicates a radio labeled primer. “P+1” represents the elongated product by a single nucleotide or nucleotide analog. P+1 migrates slowly with the dye-dNTP conjugate. Note that the migration of Cy3.5 dCMP containing bands travel slowly on the gel compared to dCTP extended products. […] Essentially, incorporation is achieved at lower concentrations (less than 10 times) of dye-dNTP compared to that of the wild type polymerase. It is evident that the DR enzyme was able to incorporate Cy3.5 dCTP at concentrations as low as 0.2 uM (Cy3.5 dCTP) or even lower. […] In this experiment the template-primer is a mRNA annealed to radio labeled primer. Extension is monitored qualitatively as P+1 for the natural nucleotides and P+1* for dye labeled nucleotide. This is a promising first observation for potential use in microarray applications for cDNA probe labeling.

[2] = system: defined DNA template-DNA primer; assay: Single nucleotide incorporation of dye-dCTP during DNA dependent DNA synthesis (FIG. 13); settings: lower concentrations (0.2 uM or lower) of dye-dCTP
Method: as §1
Primer extension was monitored using a defined DNA template-DNA primer.
In this experiment the relative efficiencies of incorporation of dye-CTP (Cy3.5-dCTP) was investigated. Three enzyme preparations were tested ΔTts, ΔTtsF412Y, and ΔTtsF412YD426R
Defined DNA shown below served as the template. A P-33 labeled primer (DNA 25 mer) was annealed to the template. Reactions were performed with varying concentrations of either Cy3.5-dCTP or dCTP alone. Inclusion of only one dNTP allowed incorporation of the next correct nucleotide alone. The sequence of the template-primer that allowed for the examination of single nucleotide “C” incorporation is shown below.
Lanes 1, 2, 3, 4 and 5 contain 20, 2, 0.2, 0.02 and 0 uM dye-dCTP. Lane 5 has no enzyme, to show the integrity of the starting p-33 labeled primer. Quantification of the single nucleotide extension product is one way to tell if DR change in the enzyme led to any consequence. “P” indicates a radio labeled primer. “P+1” represents the elongated product by a single nucleotide or nucleotide analog. P+1 migrates slowly with the dye-dNTP conjugate. Note that the migration of Cy3.5-dCTP containing band travel slowly on the gel compared to dCMP extended products. […] P+1 product is achieved between 10-100 fold less concentration of dye-dCTP with the enzyme having the DR change. Essentially, incorporation is achieved at a much lower concentration of dye-dNMP compared to the wild type enzyme. It is evident that the DR enzyme was able to incorporate Cy3.5-dCTP at concentrations as low as 0.2 uM or even lower.

[3] = system: Globin mRNA; assay: Direct RNA sequencing (FIG. 8); settings: compared to retroviral reverse transcriptases
Text: Globin mRNA served as a template. The 50-mer DNA was used a primer. Standard sequencing components in Amersham Pharmacia Thermo Sequenase kit were employed for sequencing. P-33 labeled terminators (ddNTP) were obtained from Amersham Pharmacia Biotech. Post-sequencing reaction products were separated on 6% urea-polyacrylamide gels. AMV, Avian Myeloblastosis virus RT.

Molecule | incorporation of Cy3.5-dCTP (qualitative, P+1 band) [1] | incorporation of Cy3.5-dCTP (qualitative, P+1 band) [2] | quality of sequence information from short stretches of RNA [3]
D enzyme: 5′-3′ exonuclease deficient amino-terminally truncated Tts DNA polymerase I with unaltered aspartate at 426 (SEQ ID No. 3) (protein, listed as Thermoanaerobacter thermohydrosulfuricus) MYKFLIIDGSSLMYRAYYALPMLTTSEGLPTNALYGFTMMLIKLIEEEKPDYIAIAFDKKAPTFRHKEYQDYKATRQAMPEELAEQVDYLKEIIDGFNIKTLELEGYEADDIIGTISKLAEEKGMEVLVVTGDRDALQLVSDKVKIKISKKGITQMEEFDEKAILERYGITPQQFIDLKGLMGDKSDNIPGVPNIGEKTAIKLLKDFGTIENLIQNLSQLKGKIKENIENNKELAIMSKRLATIKRDIPIEIDFEEYKVKKFNEEKLLELFNKLEFFSLIDNIKKESSIEIVDNHKVEKWSKVDIKELVTLLQDNRNIAFYPLIYEGEIKKIAFSFGKDTVYIDVFQTEDLKEIFEKEDFEFTTHEIKDFLVRLSYKGIECKSKYIDTAVMAYLLNPSESNYDLDRVLKKYLKVDVPSYEGIFGKGRDKKKIEEIDENILADYICSRCVYLFDLKEKLMNFIEEMDMKKLLLEIEMPLVEVLKSMEVSGFTLDKEVLKELSQKIDDRIGEILDKIYKEAGYQFNVNSPKQLSEFLFEKLNLPVIKKTKTGYSTDSEVLEQLVPYNDIVSDIIEYRQLTKLKSTYIDGFLPLMDENNRVHSNFKQMVTATGRISSTEPNLQNIPIREEFGRQIRRAFIPRSRDGYIVSADYSQIELRVLAHVSGDEKLIESFMNNEDIHLRTASEVFKVPMEKVTPEMRRAAKAVNFGIIYGISDYGLSRDLKISRKEAKEYINNYFERYKGVKDYIEKIVRFAKENGYVTTIMNRRRYIPEINSRNFTQRSQAERLAMNAPIQGSAADIIKMAMVKVYNDLKKLKLKSKLILQVHDELVVDTYKDEVDIIKKILKENMENVVQLKVPLVVEIGVGPNWFLAK | relatively poor incorporation | relatively poor incorporation | 
Tts F412Y: exonuclease deficient truncated Tts DNA polymerase I with F to Y change at position 412 (SEQ ID No. 5) (protein, listed as Thermoanaerobacter thermohydrosulfuricus) MYKFLIIDGSSLMYRAYYALPMLTTSEGLPTNALYGFTMMLIKLIEEEKPDYIAIAFDKKAPTFRHKEYQDYKATRQAMPEELAEQVDYLKEIIDGFNIKTLELEGYEADDIIGTISKLAEEKGMEVLVVTGDRDALQLVSDKVKIKISKKGITQMEEFDEKAILERYGITPQQFIDLKGLMGDKSDNIPGVPNIGEKTAIKLLKDFGTIENLIQNLSQLKGKIKENIENNKELAIMSKRLATIKRDIPIEIDFEEYKVKKFNEEKLLELFNKLEFFSLIDNIKKESSIEIVDNHKVEKWSKVDIKELVTLLQDNRNIAFYPLIYEGEIKKIAFSFGKDTVYIDVFQTEDLKEIFEKEDFEFTTHEIKDFLVRLSYKGIECKSKYIDTAVMAYLLNPSESNYDLDRVLKKYLKVDVPSYEGIFGKGRDKKKIEEIDENILADYICSRCVYLFDLKEKLMNFIEEMDMKKLLLEIEMPLVEVLKSMEVSGFTLDKEVLKELSQKIDDRIGEILDKIYKEAGYQFNVNSPKQLSEFLFEKLNLPVIKKTKTGYSTDSEVLEQLVPYNDIVSDIIEYRQLTKLKSTYIDGFLPLMDENNRVHSNFKQMVTATGRISSTEPNLQNIPIREEFGRQIRRAFIPRSRDGYIVSADYSQIELRVLAHVSGDEKLIESFMNNEDIHLRTASEVFKVPMEKVTPEMRRAAKAVNYGIIYGISDYGLSRDLKISRKEAKEYINNYFERYKGVKDYIEKIVRFAKENGYVTTIMNRRRYIPEINSRNFTQRSQAERLAMNAPIQGSAADIIKMAMVKVYNDLKKLKLKSKLILQVHDELVVDTYKDEVDIIKKILKENMENVVQLKVPLVVEIGVGPNWFLAK | decreased incorporation | decreased incorporation | excellent sequence information
